Values of other authors as cited in article PMC10977282.

Target: DR5 (Homo sapiens) (UniProt O14763)

Q: Which Kd does the source give for OPG (from UniProt O00300) here?
A: The Kd was less than 400 nM.
